Results published in patent US20170233490A1 (Hoffmann-La Roche, published 2017).

Experiments:
[1] = biological target: T1, human HER4 Extracellular Domain (ECD) (human, UniProt Q15303 26-651); assay: SPR Biacore T200, antibody captured, 25 C
T1 construct: also called Her4 ECD; HER4-ECD
T1 sequence: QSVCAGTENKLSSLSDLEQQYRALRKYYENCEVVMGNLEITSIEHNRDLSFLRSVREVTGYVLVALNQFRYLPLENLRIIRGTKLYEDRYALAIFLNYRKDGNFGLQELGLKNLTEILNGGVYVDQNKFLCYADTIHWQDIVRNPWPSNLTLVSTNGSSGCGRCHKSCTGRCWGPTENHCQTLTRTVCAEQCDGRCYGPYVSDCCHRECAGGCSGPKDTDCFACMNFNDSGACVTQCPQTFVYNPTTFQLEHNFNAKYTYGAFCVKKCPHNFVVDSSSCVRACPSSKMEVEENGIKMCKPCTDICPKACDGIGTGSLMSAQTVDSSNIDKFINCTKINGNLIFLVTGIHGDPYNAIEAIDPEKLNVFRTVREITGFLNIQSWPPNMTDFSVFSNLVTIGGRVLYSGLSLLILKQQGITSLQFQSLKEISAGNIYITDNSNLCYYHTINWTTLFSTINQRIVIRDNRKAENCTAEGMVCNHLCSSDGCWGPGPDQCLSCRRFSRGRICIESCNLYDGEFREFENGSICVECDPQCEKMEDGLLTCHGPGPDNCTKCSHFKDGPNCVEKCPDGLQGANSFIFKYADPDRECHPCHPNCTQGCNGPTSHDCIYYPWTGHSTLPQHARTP
Method: (§1) A Biacore T200 instrument (GE Healthcare) was mounted with a CMS series sensor. The sensor was normalized in HBS-ET buffer (10 mM HEPES pH 7.4, 150 mM NaCl, 3 mM EDTA, 0.05% w/v Tween 20) according to the manufacturer's instructions. The sample buffer was the system buffer supplemented with 1 mg/ml CMD (Carboxymethyldextran, Sigma #86524). The system operated at 25° C. 6500 RU RAM-Fcγ (relative units of Fcγ-fragment RamIgG, GE Healthcare) were immobilized according to the manufacturer's instructions using amine coupling EDC/NHS chemistry on all four flow cells. The sensor was deactivated using 1M ethanolamine. […] Concentration dependent kinetics were measured. […] All analytes were injected for 5 min association time and 10 min dissociation time at 100 μl/min flow rate. The sensor capture system was regenerated by a 3 min injection at 10 μl/min of 10 mM glycine pH 1.7. Where possible kinetic data was evaluated using the Biacore T200 evaluation software.

[2] = biological target: T2, human HER1 Extracellular Domain (ECD) (human, UniProt P00533 25-645); assay: SPR Biacore T200, antibody captured, 25 C
T2 construct: also called Her1 ECD; HER1-ECD
Method: as §1

HER3 ECD-HRG complex = biological target: T3, HER3 ECD-HRG complex (human, UniProt P21860 20-643); assay: SPR Biacore T200, antibody captured, 25 C
T3 construct: HER3 ECD preincubated with a 3- to 6-fold molar excess of Heregulin ('open' conformation); biotinylated Her3-ECD in the ribosome display; also called HER3-ECD/HRG1β
Method: as §1

HER4 ECD-HRG complex [3] = biological target: T4, HER4 ECD-HRG complex (human, UniProt Q15303 26-651); assay: SPR Biacore T200, antibody captured, 25 C
T4 construct: HER4 ECD preincubated with a 5-fold molar excess of Heregulin
T4 sequence 1: T1 sequence
T4 sequence 2: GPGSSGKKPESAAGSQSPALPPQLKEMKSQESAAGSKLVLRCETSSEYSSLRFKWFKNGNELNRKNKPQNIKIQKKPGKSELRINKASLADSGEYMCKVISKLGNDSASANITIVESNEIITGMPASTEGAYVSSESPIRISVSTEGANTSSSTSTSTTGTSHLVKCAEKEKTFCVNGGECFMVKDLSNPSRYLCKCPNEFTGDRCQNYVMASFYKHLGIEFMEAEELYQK
Method: as §1

TtSlyDcas = biological target: T5, TtSlyDcas; assay: SPR Biacore T200, antibody captured, 25 C
T5 construct: scaffold without hairpin insert, negative control
T5 chain: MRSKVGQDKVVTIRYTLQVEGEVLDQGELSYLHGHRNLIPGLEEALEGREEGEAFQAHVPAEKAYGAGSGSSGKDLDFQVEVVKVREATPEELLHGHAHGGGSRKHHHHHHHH
Method: as §1

TtSlyDcys-Her3 = biological target: T6, TtSlyDcys-Her3; assay: SPR Biacore T200, antibody captured, 25 C
T6 chain: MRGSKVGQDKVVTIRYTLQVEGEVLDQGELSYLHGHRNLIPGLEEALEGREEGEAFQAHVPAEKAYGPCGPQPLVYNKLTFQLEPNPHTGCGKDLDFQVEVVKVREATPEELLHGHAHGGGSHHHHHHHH
Method: as §1

HER4 ECD-HRG complex [4] = biological target: T4, HER4 ECD-HRG complex; assay: SPR Biacore T100; reference: HER4-ECD without Heregulin
[5] = biological target: T1, human HER4 Extracellular Domain (ECD); assay: SPR Biacore T100, antibody captured, 25 C; SPR at 25 C, antibody captured, HER4-ECD without HRG
Method: A CM5 series sensor was mounted into the system and was normalized in HBS-ET buffer (10 mM HEPES pH 7.4, 150 mM NaCl, 3 mM EDTA, 0.005% w/v Tween 20) according to the manufacturer's instructions. The sample buffer was the system buffer supplemented with 1 mg/ml CMD (Carboxymethyldextran, Sigma #86524). The system operated at 25° C. 6500 RU RAM-Fcγ (relative units of Fcγ-fragment RamIgG, GE Healthcare) were immobilized according to the manufacturer's instructions using EDC/NHS chemistry on all four flow cells. The sensor was deactivated using 1M ethanolamine.
The binding activity of the respective antibody against the analytes was kinetically tested. Antibodies were captured at 35 nM concentration by a 1 min injection at 5 μl/min. The flow rate was set to 100 μl/min.
Analytes in solution were injected at different concentration steps of 0 nM, 1.1 nM, 3.7 nM, 11.1 nM, 33.1 nM and 90 nM for 3.5 min. The dissociation was monitored for 15 min. Where possible, kinetic signatures were evaluated according to a Langmuir fit.

Kd [1]: 51 nM | MR (Molar Ratio) [1]: 0.1 | koff [1]: 0.00082 s⁻¹ | kon [1]: 16000 M⁻¹ s⁻¹ | binding result [2]: no binding (tested: up to 90 nM) | Kd (HER3 ECD-HRG complex): 2.8 nM | MR (Molar Ratio) (HER3 ECD-HRG complex): 0.8 | koff (HER3 ECD-HRG complex): 0.00029 s⁻¹ | kon (HER3 ECD-HRG complex): 100000 M⁻¹ s⁻¹ | Kd (HER4 ECD-HRG complex [3]): 8.1 nM | MR (Molar Ratio) (HER4 ECD-HRG complex [3]): 0.8 | koff (HER4 ECD-HRG complex [3]): 0.00081 s⁻¹ | kon (HER4 ECD-HRG complex [3]): 99000 M⁻¹ s⁻¹ | MR (Molar Ratio) (TtSlyDcas): 0 | binding result (TtSlyDcas): no binding (tested: up to 90 nM) | Kd (TtSlyDcys-Her3): 7.8 nM | MR (Molar Ratio) (TtSlyDcys-Her3): 1.9 | koff (TtSlyDcys-Her3): 0.00024 s⁻¹ | kon (TtSlyDcys-Her3): 30000 M⁻¹ s⁻¹ | ratio MR (+Heregulin)/MR (-Heregulin) (HER4 ECD-HRG complex [4]): 6 fold | ratio ka (Her4-ECD-HRG)/ka (Her4-ECD) (HER4 ECD-HRG complex [4]): 23.9 fold | Kd [5]: 150 nM | koff [5]: 0.001 s⁻¹ | kon [5]: 6700 M⁻¹ s⁻¹
B1: anti-HER3/HER4 antibody M-05-74 (antibody, V domains shown)
VH: QVQLQQSGAELAKPGASVKMSCKTSGYTLTDYWIHWVKQRPGQGLEWIGYINPYTGYTESNQKFKDKATLTADKSSNTAYIQLSSLTSEDSAVYYCARPYYYGDYWGQGTTLTVSS
VL: QIVLTQSPAIMSASPGERVTITCSASSSVSYMHWFQQKPGTSPKLLIYSTSNLASGVPARFSGSGSGTSYSLTISRMEAEDAATYYCQQRSSYPFTFGSGTKLEIK
notes: murine monoclonal IgG from hybridoma (supernatant or purified), bivalent; also called M-074; M-5-74
